Assay results from a protein production outcome set (Wang et al. 2014).

Test: label from the status in PepcDB records

Sequence | protein production
MTQIARISDTGTERRLQAERLIGAKALQEAQALRFNVFSGEFNAKLKGAELGLDMDDYDVHCSHIGVRDLNTGRLVATTRLLDHQAANSLGRFYSEEEFSLHGLVQLKGPILEIGRTCVDPAYRNGGTIAVLWGELAEVLNQGGYSYLMGCASIPMQDGGVQAQAIMQRLRERYLCTEHLRAEPKNPLPSLDIPSNVIAEMPPLLKAYMRLGAKICGEPCWDEDFQVADVFILLKRDELCPRYARHFKAAV | failed
MTQKVALIGFGGVAQGFIQILRERGEELPEHIQVVSITDWRRGAVHDPNGLDLDFIAKIIETDGTFEHYPERSGVIKGWNSFETIQQTNADTIVEVTFTDVLTGQPAIDHCKEALRLGKHVVTTNKGPIAVAYQELKELADANGVQLLYEGTVMSGTPALRLPEHTLIGNNIQEVKGILNGTTNYILTEMERGKTFEQALQDAQTLGYAEADPTSDVEGYDVLYKVVILANVMMGIPLKPSDVERVGISHLTPRDIKDAHSAGERWKLIGRVKKEGERTMATVRPERLPLTDPLANINGAINAITYECDISGPITLIGAGAGVKETGFALLIDLLHVNRLGE | failed
MTQLDTWLANTKPLIPVIVIDDLVHAIPMAKALVAGGVHLLEVTLRTEAGLAAISAIKKAVPEAIVGAGTVCTADDFQKAIDAGAQFIVSPGLTPELIEKAKQVKLDGQWQGVFLPGVATASEVMIAAQAGITQLKCFPASAIGGAKLLKAWSGPFPDIQFCPTGGISKDNYKEYLGLPNVICAGGSWLTESKLLIEGDWNEVTRRASEIVKLSDI | not failed
MTQLELLLERIIDRVNVNLRHQKFDVGDYVRRQTPHLHYSKFYAFYGLSADDPVHFHFKNSSLAGSYLLGRVNVLHSALYKSDIRGDELKRKGQHFVCDGKMIPLHDDEVITIKDSFLNKTLVHSNSHDPESPEEFTIRNTVAMPYANIHGSLTEGSFIGSFATVDLSTIHNSVVRYFSYVQTGELVGKCVEPGQIWIKSGDELEFHYSFDKAILDKYISQEAGSCPTGVLMEFVEVRQEDFEEVFASGHMASGAGSASGASVSGYAVIKGDTVIGENVLVSQRAYLDNAWMGKGSNAQENCYIINSRLERNCVTAHGGKIINAHLGDMIFTGFNSFLQGSESSPLKIGDGCVVMPHTIIDLEEPLEIPAGHLVWGYIRNKADLAAHSISFEEFAKVDGEVTMGRMTFRGKGGPFLDSFKKRIKRILSENGAFFDGSEGTGHAQKGKNFTFNIIQPYQDGDPRGMYPTILIQPNNGS | not failed
MTQQTDLQSKTNIDPLAMNDSFLAAADALAVDPMFGIPANVREVIARRGNATRLVILGTKGFGAHLMNVRHERPCEVIAAVDDFRYHSGELYYGLPIISTDRFTELATHDRDLVALNTCRYDGPKRFFDQICRTHGIPHLNFEQAVRAFGLQGNVDYRVDDWGADIVRNIPAFQTLAQRLADDYSVQTLYAVLNFHLTCEPEYYHEVERPYSTLYFRSGLLRFSDSEKMVDCGASIGESLAGLIGVTKGKFERVWMIEPDRINLQTLQNVLRRYTDTNFASRITVHGCGAGENTIRVPFNHEGGHGGFVKPADADHEPADLIDVRPIDDIIDDAPTFIKMDIEGSELSALKGARRAISEHKPKLAISAYHRSTDLLDLTNYILSIRPDYQIGLRHHTPDRWDTCLYFY | not failed
MTQRRAMLILHGKQSLNEDVRDAVADKRKQGWELDVRLTWEAGDAQRLVNEALAAGHRHIVAGGGDGTLRDIAEALALAATKASLTILPLGTANDFARAAGVPLDVSKALQLMDVAPRAVDLGEVGGKLFLNMATGGFGSQVTANTSEDLKKVLGGAAYLFTGLTRFSELHAAHGELTGPDFHWRGDLLALGIGNGRQAGGGHELCPTALADDGLLDISILPAPQEVVGTLRSLLEGGLGIDNMFIRARLPWVELKSAQGLDINLDGEPLSGEDLRFVARPGALQVHLPANSPVLGSTPLLNRPD | not failed
MTQSLFDFSAYFKFFIGLFALVNPVGIIPVFISMTSYQPAAVRNKTNLTANLSVAIILLTSLFLGDGILQIFGISIDSFRIAGGILVVTIAMSMISGKLGEDKQNKQEKSETAVRESIGVVPLALPLMAGPGAISSTIVWGTRYHSWVHLVGFSLAIAVFALCCWGIFRMAPWLVRLLGQTGINVITRIMGLLLMALGIEFIVTGIKALFPGLLS | failed
MTQSPDITAKSWAMVATLGFVWGGTFLINELALEGITPFWLAAGRVCFGALLSTLVWRAMGGRLFSAPLSGSERLSLVIIALLSSAVPFSLIAWGQQYVTAGFTGVSMASIALMVLPLAHFFVPGERMTWRRALGFAIGFAGVALLMGAQAFESSGAALELPGRLACLAATACYAVASILMRRLPAVDPMGLSTVLLLIGVVAVLPMAWIAEGPPPSTDLRTLGLIVFLGMVPTAAANLLRVTLIRSAGPVFMSLTNYQVPIWSVLLGAALLGEPLPPVLLWSLLLILGGVGLSQYGALRRLFTRQ | failed
MTQTQSLALYTVAILVGALTGGSLPLLGRVGRSDIGLSFSAGVMLGAAFFHMLPEAVEESGAGILPFVLVGFLLLFLLERFVLVHVCAEPGPNARLSQAAPLPAGIEAGHGHDHHHHGHAHVATGGALALEDDGTGCAVHTTLGLAAFLGMSAHTLVDGFALGAASGQAELGLLVFLAILAHKIPNSFSLSAILRAEGYSRGRALAMNAVFALMVPVGAGIYLVLRELVRVETFTAAALAASAGTFLHLSLSDILPDLHRRGGSKWVLSGALLAGLAVMWGLRALNHAH | failed
MTQTVKLDILSDPICPWCYIGKTQLDKALAAIPDHPFVIEWHPFQLNPDMAPEGMDRREYLERKFGGKEGAVRAYAPVVEHAEKAGLAIDFEAMQRTPNTLDAHRLIHWAGVEGKQTEAVDALFAAYFTEGRDIGDAEVLADIADSIGMDAAVVLKLLKSDADRDDIAKRDSHSREMGVSSVPTFIVANQHAVPGAQPPELWEQVIREIMSQIETTSA | not failed
MTQWASWKQAIVSLAMLVSFSLFGQQNVQTPPEVVQARFIGNETCIDCHQVEVEAWQGSHHDMAMRHADSESVLGNFDNQAVEHQGKANRFYRKGDEYWVNIQGPDGQWHDYKISYTFGWVPLQQYMVEFDDGRIQLIPFAWDSRSVEQGGQRWFHLYPDTTTTDEFYWTNTGQNWNFMCADCHSTNLKKNYDAQSNTYQTTWSEINVSCEACHGPASLHVEMAKQAKQNGMPIATANHYGFSRDLSAAVKEWVYKEGHSTLQPKDIVPTNQVQTCAQCHSRRTQLNEEADHVKGAFLDKYRLSLITPELYYHDGQIYDEDYVYGSFLQSAMAEKGVTCTNCHDPHSAQLKIPEEAVCAQCHVASDYLPENHTFHQANTEASKCTTCHMPETTYMQVDPRRDHSWHVPRPDLSKHINTPNVCTACHDDKDAKWADEQIGQWFPKSKYRNTQHFSVAFYADAIGHRGGSDALAYTAQDSSISDIIRASALERMAGNTGQNTLVALARAVKHENEMIRLGAVAGSAGYDFSDRWQILQPLLSDPVLSVRTEAAAALVSHYGEMNPLQRERIQKPLDEYMDIQRFNADRGFGRTNLANVYRSLGEASKAIELYQQAIDIEPYFENSYVNLADMYRRQGDEAKAVQILNAGMKAQPKSSSLPYSAGLALLRQGNSKQANQYLKQAAESAKDNAQYWYVYGLALEKSDVLEASKALNKAFEVGGDPRHLYAQCEVLARNYRQGGVAFAFEQCTKQLGAHAPEEVIQQLKATVTTKK | failed
MTRAKDRLSAVQVKQSPAGKYADGGGLWLVKSSKDTGKWVLRAVVHGRRREMGLGSVSDVGLAEARKSADKWRTVVRAGGDPIKERARQKREAARNLHLLKHVAEDCFDAIKGNLRGQGKAGRWFSPLELHVLPKLGKVPVADLDQVDIRDTLKPLRDTKFETMRKALNRLDMVVRHAAALGLDVDTQVVDKAKALIGASQHKAVNIPAMPWHEVPGFYQSLSVGSVTHLALRLLILTGVRSRPLRFLRVDHIAGDVWTIPADMMKGREGATGDFRVPLSKEALAVIEQAKRHARDGFLFPSLRRGVVSDMTLSRYMERRKLTARPHGFRSSLRDWLAECTDAPHEVAETVLGHKVGGAVERAYRRTDFIDQRAKLMERWADHCKVVQLVSAV | failed
MTRDLAPALQALSPLLGSWAGRGAGKYPTIRPFEYLEEVVFAHVGKPFLTYTQQTRAVADGKPLHSETGYLRVCRPGCVELVLAHPSGITEIEVGTYSVTGDVIELELSTRADGSIGLAPTAKEVTALDRSYRIDGDELSYSLQMRAVGQPLQDHLAAVLHRQR | not failed
MTRKQMKTLVNRLFIISTFLLTSVQSYANFIDISEQQINQYLATKLTEKFRMQDQIGIPGLFQLNYHLHNLTTQIGRTDANKVSLSGIIDGVLLLKGKSYDAQLNLNIDTTPYYDTKTGKLYLKDIRLLNYSASPEKYQDKLQAFLPLLVDGLSKMLNNTPIYTLDENKTQEALLKKFGKAIVIEQGKLSLQTALF | failed
MTRLAFVRKKEKNCGQCRICEVSCPMGIETENAEKYKGECISCIKCVEICPRYNMQLNFANQPVNPRYTSSLTVAGLFAVFSALSFLPSAKKIDTAKYNAIPSFADEDYQTDEENENINSSDNKQVETQQDYQAEIAQNNSQEANTSQNQISDQAQENAMTSKYQQNQSAAESYNSTETNQKSANVQSKTFEQAAENSQKTSLEKSQGSVQNSTYPVSSSNSSDESQQENVQANLSNATETSTQNFKVSNNTSETPKGISKIYKDGTYTGEGFGYRPGLVVEVTIKDDKITKIKIVSHNETQSFAQLPFEIIPQEIIQNQSTNVDIVSGATRTSYGIIMAVEDALNKAKIENESSLQN | failed
MTRNRRRIAFAAILAMATTAHAQQGQVLTTQDEIGGVYEGTFRGGLQHGTGTYRLPNGYEYSGEWVDGEIRGRGVARFPNGSVYEGSFAQGKPEGMGKITFSDGGTYEGEWSNGVINGQGVAVYANGVRYEGGFRDARHHGKGVMQSPGGYVYEGDWADGQKEGLGKITYPDGAVYEGGIVAGQRHGEGTLTLPDGLVYVGFWADGQINGKGTLTQANGDVYEGDLIAGRREGKGKVTYANGDVYQGDFTDDRREGQGIFTGTDGYSYAGSWVAGQIEGQGRVTYPDGSVYEGNFRADLADGQGKITYPDGSSYEGEWVAGVIEGTGTAIYANGIVYKGTFKNAKNHGQGVMTYADGYRYEGEWQDGVRHGQGKATYPDGSVYTGQYVNGQREGDGEIVMADGFRYKGQWQSGKISGIGVATYANGDIYEGHFRNGKRQGEGTMKYASGQEEKGNWDNGALTKGAAASDG | failed
MTRPLRWWKRACPGAALRRDVNAFPPPSLAKLSAVFTIRRQPELDRRPQGASAGGALQALIAALPFALRPSRLSRQAKRPWTRACRRRLPATVGAGSLAAMDSAQPNTAAARYKSFAAFYPFYMTEHANPVSRRLHVVGTSLVIVCLVLGVFRDWRFFIAAPVIGYGFAWIGHFVFEKNRPATFKYPVYSLMGDFRLWFETVTGRRKF | failed
MTRPMPESIDERIKAALSKRGIDELYTHQYSAFQYVQKGESIVTVTPTASGKTLCYNLPVLQSIAQDETNRALYLFPTKALAQDQKSELNEIIDEMGIDIKSFTYDGDTSPAIRQKVRKAGHIVITNPDMLHSAILPHHTKWVSLFENLKYIVIDELHTYRGVFGSHVANVIRRLKRICRFYGSDPVFICTSATIANPKELGEQLTGKPMRLVDDNGAPSGRKHFVFYNPPIVNKPLNIRRSATAEVNELAKEFLKNKVQTIVFARSRVRVEIILSHIQELVKKEIGTKSIRGYRGGYLPKERREIERGLREGDILGVVSTNALELGVDIGQLQVCVMTGYPGSVASAWQQAGRAGRRHGESLIIMVANSTPIDQYIVRHPEYFFNRSPESARINPENLIILVDHLKCAAYELPFRADEEFGAMEVSDILEYLQEEAVLHRNGERYHWASESFPASNISLRSASQENVVIVDQSDIANVRIIGEMDRFSAMTLLHDEAIYLHEGVQYQVEKLDWDHKKAYVRKVDVEYYTDANLAVQLKVLEIDKTKEKSRTSLHYGDVTVNALPTIFKKIKMTTFENIGSGPIHLPEEELHTSAAWLEIKTADEDIGEKTLEQLLLGISNVLQHIVPVYIMCDRNDVHVVSQIKAAHTGLPTIFLYDHYPGGIGLAEEVFKRFSDINEAAKQLITHCPCHDGCPSCIGTEIEGIKAKERILQLLDQMSLEHHHHHH | not failed
